The values below come from US20220251236A1 (Boehringer Ingelheim, published 2022).

The term Kd denotes the constant that tells how readily two partners part at equilibrium.

Bounds are passed on as bounds.

Assay [1] concerns the target T1, trypsin inhibitor from glycine max soybean (Glycine max (soybean)).
T1 construct: also called Tryp
In words: SPR (Biacore T200), trypsin inhibitor on CM5 chip, sample at 1 µM. From the text:
To prepare the surface for the non-specific binding experiment, chicken egg white lysozyme and trypsin inhibitor from glycine max soybean were coupled manually to a series S CM5 chip with the surface density of 3000-5000 RU using the amine coupling kit according to the manufacture instructions.
A general note: SPR reads the build-up and loss of mass on a sensor chip optically.

The target of the next assay is T2, Human DLL3-His (human, UniProt Q9NYJ7 27-492).
T2 construct: also called huDLL3-His; hu DLL3
T2 sequence: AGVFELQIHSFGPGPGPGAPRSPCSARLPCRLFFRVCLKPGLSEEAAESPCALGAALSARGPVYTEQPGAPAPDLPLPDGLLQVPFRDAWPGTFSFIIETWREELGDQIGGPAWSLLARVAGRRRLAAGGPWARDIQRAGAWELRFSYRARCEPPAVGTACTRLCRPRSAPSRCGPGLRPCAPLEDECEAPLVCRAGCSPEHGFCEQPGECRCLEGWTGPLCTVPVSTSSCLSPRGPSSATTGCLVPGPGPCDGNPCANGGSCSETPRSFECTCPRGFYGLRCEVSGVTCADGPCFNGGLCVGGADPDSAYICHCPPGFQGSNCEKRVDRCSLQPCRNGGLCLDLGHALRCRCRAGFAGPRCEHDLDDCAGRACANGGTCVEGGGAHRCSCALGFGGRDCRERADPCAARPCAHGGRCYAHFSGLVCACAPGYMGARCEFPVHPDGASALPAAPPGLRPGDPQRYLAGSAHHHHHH
In words: SPR (ProteOn XPR36), bispecific captured on protein A/G, hu DLL3 as analyte, Example 4B. As to the method: (§1) The binding affinity of purified DLL3/CD3 bispecific constructs for recombinant human DLL3-ECD and Fc-fusion protein of human CD3 εγ subunits was determined by Surface Plasmon Resonance (SPR), using a ProteOn XPR36 instrument (Bio-Rad).
For binding kinetic determination to DLL3, anti-DLL3/CD3 molecules were captured individually on the protein A/G surface vertically for 200 sec at a flowrate of 30 μl/min. The baseline was stabilized by injecting PBS-T-EDTA for 60 sec at a flowrate of 30 μl/min horizontally. The analyte (hu DLL3) was injected horizontally over the captured antibody for 300 sec at a flowrate of 30 μl/min and a dissociation for 1800 sec.

For another assay, the target named is T3, EGF2+3.
T3 construct: also called Hu DLL3 EGF2+3 on HEK293 cells
T3 membrane-anchored DLL3 subdomain construct: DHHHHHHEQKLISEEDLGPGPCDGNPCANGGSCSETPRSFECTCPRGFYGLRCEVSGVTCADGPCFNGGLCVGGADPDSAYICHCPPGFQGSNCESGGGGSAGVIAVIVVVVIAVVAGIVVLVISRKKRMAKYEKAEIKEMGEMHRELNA
In words: flow cytometry on HEK293 cells expressing the DLL3 subdomain construct, PE anti-human secondary, control: secondary antibody only. How it is done:
(§2) DLL3/CD3 binding proteins were produced by transient transfection of CHO-E cells with the pTT5 vectors carrying the chain-encoding genes, as described in Example 2. […] Bound molecules were detected with PE-conjugated anti-human secondary antibody (Sigma-Aldrich, #P8047). As negative control, cells were incubated with secondary antibody only.
(§3) The samples were measured by flow-cytometry. […] The sequences of the epitope domains are listed in Example 5, Table 3.
(In flow cytometry, cells or beads pass a laser one at a time.)

In a further assay the target is T4, EGF3+4.
T4 construct: also called Hu DLL3 EGF3+4 on HEK293 cells
T4 membrane-anchored DLL3 subdomain construct: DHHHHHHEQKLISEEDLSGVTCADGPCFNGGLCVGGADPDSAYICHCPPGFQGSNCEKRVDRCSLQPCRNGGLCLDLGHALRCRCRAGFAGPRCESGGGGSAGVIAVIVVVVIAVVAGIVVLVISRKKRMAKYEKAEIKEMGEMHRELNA
Described as above. As to the method: as §2, §3

A further assay addresses T5, EGF4+5.
T5 construct: also called Hu DLL3 EGF4+5 on HEK293 cells
T5 membrane-anchored DLL3 subdomain construct: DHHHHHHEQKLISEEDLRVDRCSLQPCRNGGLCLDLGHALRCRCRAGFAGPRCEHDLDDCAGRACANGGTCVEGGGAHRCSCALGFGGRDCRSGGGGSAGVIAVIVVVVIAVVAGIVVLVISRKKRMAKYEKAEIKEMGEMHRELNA
The description is as above. As to the method: as §2, §3

A further assay deals with T6, EGF5+6.
T6 construct: also called Hu DLL3 EGF5+6 on HEK293 cells
T6 membrane-anchored DLL3 subdomain construct: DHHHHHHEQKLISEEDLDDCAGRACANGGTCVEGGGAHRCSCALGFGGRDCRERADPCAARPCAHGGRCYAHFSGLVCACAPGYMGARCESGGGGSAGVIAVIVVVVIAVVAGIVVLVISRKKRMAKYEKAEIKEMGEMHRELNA
The assay is described as above. How it is done:
as §2, §3

Assay [2] concerns the target T7, EGF6+MEMBRANE PROXIMAL PEPTIDE.
T7 construct: also called Hu DLL3 EGF6+membrane proximal peptide on HEK293 cells
T7 membrane-anchored DLL3 subdomain construct: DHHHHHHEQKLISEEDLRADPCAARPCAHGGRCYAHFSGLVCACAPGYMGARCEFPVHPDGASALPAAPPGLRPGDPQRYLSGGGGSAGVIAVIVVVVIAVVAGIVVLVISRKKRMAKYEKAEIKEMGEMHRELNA
Described as above. As to the method:
as §2, §3

The target of the next assay is T8, EGF1+2.
T8 construct: also called Hu DLL3 EGF1+2 on HEK293 cells
T8 membrane-anchored DLL3 subdomain construct: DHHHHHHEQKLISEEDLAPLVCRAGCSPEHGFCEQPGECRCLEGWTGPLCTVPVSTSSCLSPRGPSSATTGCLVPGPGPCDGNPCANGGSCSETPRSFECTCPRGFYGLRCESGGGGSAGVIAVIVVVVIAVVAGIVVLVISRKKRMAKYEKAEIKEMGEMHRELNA
In words: flow cytometry on HEK293 cells expressing the DLL3 subdomain construct, 1.6 nM binder, PE anti-human secondary, control: secondary antibody only. As to the method:
as §2, §3

A further assay deals with T9, Human CD3 E+G HuFc-6xHis (human).
T9 construct: also called hu CD3εγ-Fc
In words: SPR (ProteOn XPR36), HuCD3E_HuCD3G-Fc amine-coupled, bispecific as analyte, Example 4B. As to the method:
as §1
For binding kinetic determination to CD3, HuCD3E_HuCD3G-Fc (dissolved in pH 4.5 acetate) was immobilized directly onto the sensor surface through amine coupling for 360 sec at a flowrate of 30 μl/min vertically. The baseline was stabilized by injecting PBS-T-EDTA for 60 sec at a flowrate of 30 μl/min horizontally. The analytes (all anti-DLL3/CD3 molecules) were injected horizontally over the captured antibody for 600 sec at a flowrate of 30 μl/min and a dissociation for 1800 sec.

T1 sequence (P01070 25-205): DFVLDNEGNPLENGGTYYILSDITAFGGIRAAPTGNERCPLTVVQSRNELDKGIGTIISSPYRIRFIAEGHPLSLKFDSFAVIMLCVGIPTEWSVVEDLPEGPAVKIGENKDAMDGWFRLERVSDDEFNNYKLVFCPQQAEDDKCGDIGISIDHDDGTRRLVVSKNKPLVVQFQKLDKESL
T9 sequence (chain, as listed by the source limits assumed): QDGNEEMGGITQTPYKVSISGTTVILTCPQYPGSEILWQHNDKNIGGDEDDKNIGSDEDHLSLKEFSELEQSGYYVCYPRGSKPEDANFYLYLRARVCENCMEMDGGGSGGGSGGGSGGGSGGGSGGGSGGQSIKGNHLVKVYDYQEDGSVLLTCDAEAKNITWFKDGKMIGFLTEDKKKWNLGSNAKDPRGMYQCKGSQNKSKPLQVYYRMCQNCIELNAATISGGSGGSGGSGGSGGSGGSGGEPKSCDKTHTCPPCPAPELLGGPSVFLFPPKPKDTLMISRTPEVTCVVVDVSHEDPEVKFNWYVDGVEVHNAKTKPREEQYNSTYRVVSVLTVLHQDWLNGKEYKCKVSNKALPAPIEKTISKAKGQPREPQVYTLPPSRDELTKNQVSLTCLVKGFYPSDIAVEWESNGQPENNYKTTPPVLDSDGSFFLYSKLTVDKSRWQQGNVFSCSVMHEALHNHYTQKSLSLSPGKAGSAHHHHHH

B1: DLL3#10/CD3#1 (bispecific antibody, human IgG1, kappa, lambda, L234A L235A)
chain 1: EIVLTQSPGTLSLSPGERATLSCRASQSLNSIFLAWYQQKPGQAPWLLIYGASSRATGIPDRFSGSGSGTDFTLTISRLEPEDFAVYFCQQYGGSMNTFGQGTKLEIKRTVAAPSVFIFPPSDEQLKSGTASVVCLLNNFYPREAKVQWKVDNALQSGNSQESVTEQDSKDSTYSLSSTLTLSKADYEKHKVYACEVTHQGLSSPVTKSFNRGECGGGGSEGKSSGSGSESKSTEGKSSGSGSESKSTGGGGSQVQLVQSGAEVKKPGASVKVSCKASGYTFTGYYMHWVRLAPGQGLEWMGWINPNSGGTIFAQRFQGRVTMTRDTSISTVYMDLNRLRSDDTAVYYCARDFGDTVGNAFDIWGQGTMVTVSSASTKGPSVFPLAPSSKSTSGGTAALGCLVKDYFPEPVTVSWNSGALTSGVHTFPAVLQSSGLYSLSSVVTVPSSSLGTQTYICNVNHKPSNTKVDKRVEPKSCDKTHTCPPCPAPEAAGGPSVFLFPPKPKDTLMISRTPEVTCVVVDVSHEDPEVKFNWYVDGVEVHNAKTKPREEQYNSTYRVVSVLTVLHQDWLNGKEYKCKVSNKALPAPIEKTISKAKGQPREPQVYTLPPSREEMTKNQVSLWCLVKGFYPSDIAVEWESNGQPENNYKTTPPVLDSDGSFFLYSKLTVDKSRWQQGNVFSCSVMHEALHNHYTQKSLSLSPG
chain 2: EAVVTQEPSLTVSPGGTVTLTCRSSTGAVTTSNYANWVQEKPGQLPRGLIGGTNKRAPWVPARFSGSLLGGKAALTLSGAQPEDEAEYFCALWYSNLWVFGGGTKLTVLGQPKAAPSVTLFPPSSEELQANKATLVCLISDFYPGAVKVAWKADGSPVNTGVETTTPSKQSNNKYAASSYLSLTPEQWKSHRSYSCQVTHEGSTVEKTVAPAECSGGGGSEGKSSGSGSESKSTEGKSSGSGSESKSTGGGGSEVQLVESGGGLVQPGGSLKLSCAASGFTFNTYAMNWVRQAPGKGLEWVARIRSKYNNYATYYADSVKDRFTISRDDSKNTAYLQMNNLKTEDTAVYYCVRHGNFGNSYVSWFAYWGQGTLVTVSAASTKGPSVFPLAPSSKSTSGGTAALGCLVKDYFPEPVTVSWNSGALTSGVHTFPAVLQSSGLYSLSSVVTVPSSSLGTQTYICNVNHKPSNTKVDKRVEPKSCDKTHTCPPCPAPEAAGGPSVFLFPPKPKDTLMISRTPEVTCVVVDVSHEDPEVKFNWYVDGVEVHNAKTKPREEQYNSTYRVVSVLTVLHQDWLNGKEYKCKVSNKALPAPIEKTISKAKGQPREPQVYTLPPSREEMTKNQVSLSCAVKGFYPSDIAVEWESNGQPENNYKTTPPVLDSDGSFFLVSKLTVDKSRWQQGNVFSCSVMHEALHNRFTQKSLSLSPG
notes: Heterodimer of one DLL3 chain and one CD3 chain (scFab-Fc, knob-in-hole)
On to B1, for which, in assay [1], the “Non-specific binding (RU)” value was found to be 12 RU. In addition, in the assay with Human DLL3-His, binding was put at a Kd of 0.141 nM. Also, the binding result was “no binding (tested: 1.6 nM)” with EGF2+3; “no binding (tested: 1.6 nM)” in the assay with EGF3+4; “no binding (tested: 1.6 nM)” with EGF4+5; “no binding (tested: 1.6 nM)” in the assay with EGF5+6; “no binding (tested: 1.6 nM)” in assay [2]; “binds” in the assay with EGF1+2.

B2: DLL3#12/CD3#1 (bispecific antibody, human IgG1, kappa, lambda, L234A L235A)
chain 1: QVVLTQSPAIMSASPGEKVTITCSASSSVTYIHWFQQNPGTSPKLWIYRTSYLASGVPARFSGSGSGTSYSLTISRMEAEDAATYYCQQRSSYPRTFGGGTKLEIKRTVAAPSVFIFPPSDEQLKSGTASVVCLLNNFYPREAKVQWKVDNALQSGNSQESVTEQDSKDSTYSLSSTLTLSKADYEKHKVYACEVTHQGLSSPVTKSFNRGECGGGGSEGKSSGSGSESKSTEGKSSGSGSESKSTGGGGSQVQLQQPGAEFVQPGSSVKMSCKASGYAFSDYWITWVKQRPGQGLEWIGDIYPGSGSTKSSEKFKNRATLTADTSSSTAYIQFSSLTPEDSAVYYCVSLYYYGSYYLDTWGQGTTLTVSSASTKGPSVFPLAPSSKSTSGGTAALGCLVKDYFPEPVTVSWNSGALTSGVHTFPAVLQSSGLYSLSSVVTVPSSSLGTQTYICNVNHKPSNTKVDKRVEPKSCDKTHTCPPCPAPEAAGGPSVFLFPPKPKDTLMISRTPEVTCVVVDVSHEDPEVKFNWYVDGVEVHNAKTKPREEQYNSTYRVVSVLTVLHQDWLNGKEYKCKVSNKALPAPIEKTISKAKGQPREPQVYTLPPSREEMTKNQVSLWCLVKGFYPSDIAVEWESNGQPENNYKTTPPVLDSDGSFFLYSKLTVDKSRWQQGNVFSCSVMHEALHNHYTQKSLSLSPG
chain 2: EAVVTQEPSLTVSPGGTVTLTCRSSTGAVTTSNYANWVQEKPGQLPRGLIGGTNKRAPWVPARFSGSLLGGKAALTLSGAQPEDEAEYFCALWYSNLWVFGGGTKLTVLGQPKAAPSVTLFPPSSEELQANKATLVCLISDFYPGAVKVAWKADGSPVNTGVETTTPSKQSNNKYAASSYLSLTPEQWKSHRSYSCQVTHEGSTVEKTVAPAECSGGGGSEGKSSGSGSESKSTEGKSSGSGSESKSTGGGGSEVQLVESGGGLVQPGGSLKLSCAASGFTFNTYAMNWVRQAPGKGLEWVARIRSKYNNYATYYADSVKDRFTISRDDSKNTAYLQMNNLKTEDTAVYYCVRHGNFGNSYVSWFAYWGQGTLVTVSAASTKGPSVFPLAPSSKSTSGGTAALGCLVKDYFPEPVTVSWNSGALTSGVHTFPAVLQSSGLYSLSSVVTVPSSSLGTQTYICNVNHKPSNTKVDKRVEPKSCDKTHTCPPCPAPEAAGGPSVFLFPPKPKDTLMISRTPEVTCVVVDVSHEDPEVKFNWYVDGVEVHNAKTKPREEQYNSTYRVVSVLTVLHQDWLNGKEYKCKVSNKALPAPIEKTISKAKGQPREPQVYTLPPSREEMTKNQVSLSCAVKGFYPSDIAVEWESNGQPENNYKTTPPVLDSDGSFFLVSKLTVDKSRWQQGNVFSCSVMHEALHNRFTQKSLSLSPG
notes: as for B1
For B2, the “Non-specific binding (RU)” value in assay [1] stood at 9 RU. For the same molecule, the Kd with Human CD3 E+G HuFc-6xHis was 2 nM; with Human DLL3-His it was below 0.02 nM. The binding result is given as “no binding (tested: 1.6 nM)” with EGF2+3; “no binding (tested: 1.6 nM)” with EGF3+4; “no binding (tested: 1.6 nM)” with EGF4+5; “no binding (tested: 1.6 nM)” with EGF5+6; “no binding (tested: 1.6 nM)” in assay [2]; “binds” with EGF1+2.
